Assay results from patent publication EP4775226A1, “ANTIBODY DRUG CONJUGATE TARGETING GPC3 AND USE THEREOF” (priority 2023, dated 2025).

Assays:
human GPC3 (Glypican-3) [1] = target: T1, human GPC3 (Glypican-3) (human, UniProt P51654 25-580); test: FACS on Huh-7 cells
T1 construct: whole, on cells; The cell line of each value is named under assay

human GPC3 (Glypican-3) [2] = target: T1, human GPC3 (Glypican-3); test: FACS on Huh7 liver cancer cells
human GPC3 (Glypican-3) [3] = target: T1, human GPC3 (Glypican-3); test: FACS on GPC3-CHO-K1 cells (CHO-K1 overexpressing human GPC3)
human GPC3 (Glypican-3) [4] = target: T1, human GPC3 (Glypican-3); test: cell-based or functional assay
human GPC3 (Glypican-3) [5] = target: T1, human GPC3 (Glypican-3); test: cell-based or functional assay; remark: listed apart in the source
human GPC3 (Glypican-3) [6] = target: T1, human GPC3 (Glypican-3); test: FACS on HepG2 cells
human GPC3 (Glypican-3) [7] = target: T1, human GPC3 (Glypican-3); test: cell-based or functional assay; remark: listed apart in the source

T1 sequence (P51654 25-580, form in doubt): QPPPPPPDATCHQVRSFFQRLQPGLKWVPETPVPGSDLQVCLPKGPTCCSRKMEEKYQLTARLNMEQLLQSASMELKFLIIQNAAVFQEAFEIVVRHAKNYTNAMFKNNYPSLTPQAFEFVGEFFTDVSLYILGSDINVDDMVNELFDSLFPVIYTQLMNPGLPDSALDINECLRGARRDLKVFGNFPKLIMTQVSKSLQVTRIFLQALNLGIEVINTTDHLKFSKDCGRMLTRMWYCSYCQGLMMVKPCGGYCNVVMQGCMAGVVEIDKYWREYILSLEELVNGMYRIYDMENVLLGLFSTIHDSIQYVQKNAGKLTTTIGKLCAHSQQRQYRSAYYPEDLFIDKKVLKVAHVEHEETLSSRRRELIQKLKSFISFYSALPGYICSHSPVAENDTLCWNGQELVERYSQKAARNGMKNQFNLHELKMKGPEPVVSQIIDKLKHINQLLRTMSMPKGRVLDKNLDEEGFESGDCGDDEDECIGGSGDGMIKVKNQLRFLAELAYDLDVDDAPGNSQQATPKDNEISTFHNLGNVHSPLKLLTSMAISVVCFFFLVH

| Binder | EC50 (human GPC3 (Glypican-3) [1]) [pM] | EC50 (human GPC3 (Glypican-3) [2]) [µg/mL] | EC50 (human GPC3 (Glypican-3) [3]) [pM] | Percentage reduction of GPC3 on cell surface (%), Huh7 cells, 0.5 h (human GPC3 (Glypican-3) [4]) [%] | Percentage reduction of GPC3 on cell surface (%), Huh7 cells, 1 h (human GPC3 (Glypican-3) [4]) [%] | Percentage reduction of GPC3 on cell surface (%), Huh7 cells, 2 h (human GPC3 (Glypican-3) [4]) [%] | Endocytosis on HepG2 cells, EC50 (pHAb dye-labelled secondary antibody) (human GPC3 (Glypican-3) [5]) [µg/mL] | Endocytosis on HepG2 cells, Top (human GPC3 (Glypican-3) [5]) | EC50 (human GPC3 (Glypican-3) [6]) [pM] | EC50 value of cell killing activity in Huh7 cells (human GPC3 (Glypican-3) [7]) [µg/mL] |
| --- | --- | --- | --- | --- | --- | --- | --- | --- | --- | --- |
| Hu 52H5D3B8-8 (antibody, human IgG1, kappa, V domains shown, also called humanized GPC3 antibody Hu 52H5D3B8-8; GPC3 antibody) VH: EVQLVQSGAEVKKPGASVKVSCKASGYTFTDYEMHWVRQAPGQGLEWMGAIHPGSGGTAYNQKFKGRVTMTADKSISTAYMELSRLRSDDTAVYYCTRFYSYAYWGQGTLVTVSS VL: DVVMTQTPLSLSVTPGQPASISCRSSQSLVHSNGNTYLQWYLQKPGQSPQLLIYKVSNRFSGVPDRFSGSGSGTDFTLKISRVEAEDVGVYFCSQSIHVPYTFGGGTKVEIKR | 418 | 0.0569 | 411 | 18.6 | 37.1 | 52.8 | 0.78 | 62400 | 351 |  |
| Hu 52H5D3B8-8-mcc-AAN-Exatecan (ADC-2) (antibody, human IgG1, kappa, DAR 8.0, V domains shown, mcc-AAN-Exatecan on cysteine thiols freed by reduction of interchain disulfide bonds; DAR 8.0 for the whole antibody; positions not given, also called Hu 52H5D3B8-8-MCC-AAN-Exa (ADC-2)) VH: EVQLVQSGAEVKKPGASVKVSCKASGYTFTDYEMHWVRQAPGQGLEWMGAIHPGSGGTAYNQKFKGRVTMTADKSISTAYMELSRLRSDDTAVYYCTRFYSYAYWGQGTLVTVSS VL: DVVMTQTPLSLSVTPGQPASISCRSSQSLVHSNGNTYLQWYLQKPGQSPQLLIYKVSNRFSGVPDRFSGSGSGTDFTLKISRVEAEDVGVYFCSQSIHVPYTFGGGTKVEIKR |  | 0.061 |  | 20.5 | 38.2 | 52.2 |  |  |  | 0.00939 |
| Y035 CDRs with Hu 52H5D3B8-7 FRs (antibody, V domains shown, detected with anti-human IgG) VH: EVQLVQSGAEVKKPGASVKVSCKASGYTFTDYEMHWVRQAPGQGLEWMGAIHPGSGDTAYNQRFKGRVTMTADKSISTAYMELSRLRSDDTAVYYCTRFYSYAYWGQGTLVTVSS VL: DVVMTQTPLSLSVTPGQPASISCRSSQSLVHSNGNTYLQWYLQKPGQSPQLLIYKVSNRFSGVPDRFSGSGSGTDFTLKISRVEAEDVGVYYCSQSIYVPYTFGGGTKVEIK | 667 |  | 907 |  |  |  | 1.11 | 52200 | 611 |  |
| Hu 52H5D3B8-8-MCC-AA-(3-cyano-L-alanine)-Exatecan (ADC-8) (antibody, human IgG1, kappa, DAR 8.0, V domains shown, mcc-Ala-Ala-(3-cyano-L-alanine)-Exatecan on cysteine thiols freed by reduction of interchain disulfide bonds; DAR 8.0 for the whole antibody; positions not given) VH: EVQLVQSGAEVKKPGASVKVSCKASGYTFTDYEMHWVRQAPGQGLEWMGAIHPGSGGTAYNQKFKGRVTMTADKSISTAYMELSRLRSDDTAVYYCTRFYSYAYWGQGTLVTVSS VL: DVVMTQTPLSLSVTPGQPASISCRSSQSLVHSNGNTYLQWYLQKPGQSPQLLIYKVSNRFSGVPDRFSGSGSGTDFTLKISRVEAEDVGVYFCSQSIHVPYTFGGGTKVEIKR |  |  |  |  |  |  |  |  |  | 0.00734 |
| Hu 52H5D3B8-8-mc-AAQ-Exatecan (ADC-3) (antibody, human IgG1, kappa, DAR 8.0, V domains shown, mc-AAQ-Exatecan on cysteine thiols freed by reduction of interchain disulfide bonds; DAR 8.0 for the whole antibody; positions not given, also called Hu 52H5D3B8-8-MC-AAQ-Exa (ADC-3)) VH: EVQLVQSGAEVKKPGASVKVSCKASGYTFTDYEMHWVRQAPGQGLEWMGAIHPGSGGTAYNQKFKGRVTMTADKSISTAYMELSRLRSDDTAVYYCTRFYSYAYWGQGTLVTVSS VL: DVVMTQTPLSLSVTPGQPASISCRSSQSLVHSNGNTYLQWYLQKPGQSPQLLIYKVSNRFSGVPDRFSGSGSGTDFTLKISRVEAEDVGVYFCSQSIHVPYTFGGGTKVEIKR |  | 0.0633 |  | 20 | 32.8 | 50.1 |  |  |  | 0.0119 |
| Hu 52H5D3B8-8-mcc-AAQ-Exatecan (ADC-6) (antibody, human IgG1, kappa, DAR 4.0, V domains shown, mcc-AAQ-Exatecan on cysteine thiols freed by partial reduction of interchain disulfide bonds; DAR 4.0 for the whole antibody; positions not given) VH: EVQLVQSGAEVKKPGASVKVSCKASGYTFTDYEMHWVRQAPGQGLEWMGAIHPGSGGTAYNQKFKGRVTMTADKSISTAYMELSRLRSDDTAVYYCTRFYSYAYWGQGTLVTVSS VL: DVVMTQTPLSLSVTPGQPASISCRSSQSLVHSNGNTYLQWYLQKPGQSPQLLIYKVSNRFSGVPDRFSGSGSGTDFTLKISRVEAEDVGVYFCSQSIHVPYTFGGGTKVEIKR |  |  |  |  |  |  |  |  |  | 0.0307 |
| Hu 52H5D3B8-8-mc-AAN-Exatecan (ADC-1) (antibody, human IgG1, kappa, DAR 8.0, V domains shown, mc-AAN-Exatecan on cysteine thiols freed by reduction of interchain disulfide bonds; DAR 8.0 for the whole antibody; positions not given, also called Hu 52H5D3B8-8-MC-AAN-Exa (ADC-1)) VH: EVQLVQSGAEVKKPGASVKVSCKASGYTFTDYEMHWVRQAPGQGLEWMGAIHPGSGGTAYNQKFKGRVTMTADKSISTAYMELSRLRSDDTAVYYCTRFYSYAYWGQGTLVTVSS VL: DVVMTQTPLSLSVTPGQPASISCRSSQSLVHSNGNTYLQWYLQKPGQSPQLLIYKVSNRFSGVPDRFSGSGSGTDFTLKISRVEAEDVGVYFCSQSIHVPYTFGGGTKVEIKR |  | 0.0673 |  | 17.9 | 32.9 | 52.2 |  |  |  | 0.00359 |
| Hu 52H5D3B8-8-mcc-AAQ-Exatecan (ADC-4) (antibody, human IgG1, kappa, DAR 8.0, V domains shown, mcc-AAQ-Exatecan on cysteine thiols freed by reduction of interchain disulfide bonds; DAR 8.0 for the whole antibody; positions not given, also called Hu 52H5D3B8-8-MCC-AAQ-Exa (ADC-4)) VH: EVQLVQSGAEVKKPGASVKVSCKASGYTFTDYEMHWVRQAPGQGLEWMGAIHPGSGGTAYNQKFKGRVTMTADKSISTAYMELSRLRSDDTAVYYCTRFYSYAYWGQGTLVTVSS VL: DVVMTQTPLSLSVTPGQPASISCRSSQSLVHSNGNTYLQWYLQKPGQSPQLLIYKVSNRFSGVPDRFSGSGSGTDFTLKISRVEAEDVGVYFCSQSIHVPYTFGGGTKVEIKR |  | 0.0675 |  | 18.9 | 36.2 | 50.2 |  |  |  | 0.0149 |
| Hu 52H5D3B8-7-mcc-AAQ-Exatecan (ADC-7) (antibody, human IgG1, kappa, DAR 4.0, V domains shown, mcc-AAQ-Exatecan on cysteine thiols freed by partial reduction of interchain disulfide bonds; DAR 4.0 for the whole antibody; positions not given) VH: EVQLVQSGAEVKKPGASVKVSCKASGYTFTDYEMHWVRQAPGQGLEWMGAIHPGSGGTAYNQKFKGRVTMTADKSISTAYMELSRLRSDDTAVYYCTRFYSYAYWGQGTLVTVSS VL: DVVMTQTPLSLSVTPGQPASISCRSSQSLVHSNGNTYLQWYLQKPGQSPQLLIYKVSNRFSGVPDRFSGSGSGTDFTLKISRVEAEDVGVYYCSQSIHVPYTFGGGTKVEIKR |  |  |  |  |  |  |  |  |  | 0.0279 |
| Hu 52H5D3B8-8-MCC-AAAAQ-Exatecan (ADC-9) (antibody, human IgG1, kappa, DAR 8.0, V domains shown, mcc-Ala-Ala-Ala-Ala-Gln-Exatecan on cysteine thiols freed by reduction of interchain disulfide bonds; DAR 8.0 for the whole antibody; positions not given) VH: EVQLVQSGAEVKKPGASVKVSCKASGYTFTDYEMHWVRQAPGQGLEWMGAIHPGSGGTAYNQKFKGRVTMTADKSISTAYMELSRLRSDDTAVYYCTRFYSYAYWGQGTLVTVSS VL: DVVMTQTPLSLSVTPGQPASISCRSSQSLVHSNGNTYLQWYLQKPGQSPQLLIYKVSNRFSGVPDRFSGSGSGTDFTLKISRVEAEDVGVYFCSQSIHVPYTFGGGTKVEIKR |  |  |  |  |  |  |  |  |  | 0.00478 |
| Hu 52H5D3B8-7-mcc-AAQ-Exatecan (ADC-5) (antibody, human IgG1, kappa, DAR 7.9, V domains shown, mcc-AAQ-Exatecan on cysteine thiols freed by reduction of interchain disulfide bonds; DAR 7.9 for the whole antibody; positions not given) VH: EVQLVQSGAEVKKPGASVKVSCKASGYTFTDYEMHWVRQAPGQGLEWMGAIHPGSGGTAYNQKFKGRVTMTADKSISTAYMELSRLRSDDTAVYYCTRFYSYAYWGQGTLVTVSS VL: DVVMTQTPLSLSVTPGQPASISCRSSQSLVHSNGNTYLQWYLQKPGQSPQLLIYKVSNRFSGVPDRFSGSGSGTDFTLKISRVEAEDVGVYYCSQSIHVPYTFGGGTKVEIKR |  |  |  |  |  |  |  |  |  | 0.0164 |
| Hu 52H5D3B8-7 (antibody, human IgG1, kappa, V domains shown, also called humanized GPC3 antibody Hu 52H5D3B8-7) VH: EVQLVQSGAEVKKPGASVKVSCKASGYTFTDYEMHWVRQAPGQGLEWMGAIHPGSGGTAYNQKFKGRVTMTADKSISTAYMELSRLRSDDTAVYYCTRFYSYAYWGQGTLVTVSS VL: DVVMTQTPLSLSVTPGQPASISCRSSQSLVHSNGNTYLQWYLQKPGQSPQLLIYKVSNRFSGVPDRFSGSGSGTDFTLKISRVEAEDVGVYYCSQSIHVPYTFGGGTKVEIKR | 464 |  | 446 |  |  |  | 0.72 | 58600 | 405 |  |
| GC33 antibody (Chugai Pharmaceutical) (antibody, V domains shown, Control antibody; preparation described in US 7919086 B2; detected with anti-human IgG) VH: QVQLVQSGAEVKKPGASVKVSCKASGYTFTDYEMHWVRQAPGQGLEWMGALDPKTGDTAYSQKFKGRVTLTADKSTSTAYMELSSLTSEDTAVYYCTRFYSYTYWGQGTLVTVSS VL: DVVMTQSPLSLPVTPGEPASISCRSSQSLVHSNGNTYLHWYLQKPGQSPQLLIYKVSNRFSGVPDRFSGSGSGTDFTLKISRVEAEDVGVYYCSQNTHVPPTFGQGTKLEIK | 953 |  | 956 |  |  |  |  |  | 745 |  |
